Patent publication US20190276523A1

Columns and labels:
[1] = target: D80 scFv-Fc-CD28-gp41 expressed on 293T cells (human; HIV-1) [IgG part: P01857]; experiment: cell-based or functional assay
[2] = target: F70 scFv-Fc-CD28-gp41 expressed on 293T cells (human; HIV-1) [IgG part: P01857]; experiment: cell-based or functional assay
[3] = target: F43 scFv-Fc-CD28-gp41 expressed on 293T cells (human; HIV-1) [IgG part: P01857]; experiment: cell-based or functional assay
[4] = target: F70 scFv-Fc-CD28-gp41 expressed on 293T cells (human; HIV-1) [IgG part: P01857]; experiment: flow cytometry, 293T-F70 cells stained with APC-conjugated MuG6
[5] = target: D80 scFv-Fc-CD28-gp41 expressed on 293T cells (human; HIV-1) [IgG part: P01857]; experiment: flow cytometry, 293T-D80 cells stained with APC-conjugated MuG6
[6] = target: F43 scFv-Fc-CD28-gp41 expressed on 293T cells (human; HIV-1) [IgG part: P01857]; experiment: flow cytometry, 293T-F43 cells stained with APC-conjugated MuG6
[7] = target: 11A scFv-Fc-CD28-gp41 expressed on 293T cells (human; HIV-1) [IgG part: P01857]; experiment: flow cytometry, 293T-11A cells stained with APC-conjugated MuG6
[8] = target: F43 scFv-Fc (human) [IgG part: P01857]; experiment: Octet-Red biolayer interferometry, SA sensor tips, 2:1 model; reference pair HuG6.3 and D80 scFv-Fc

| Binder | CDC, percent of target cells killed (LDH release, rabbit serum) (% of target cells killed) [1] | CDC, percent of target cells killed (LDH release, rabbit serum) (% of target cells killed) [2] | CDC, percent of target cells killed (LDH release, rabbit serum) (% of target cells killed) [3] | % of cells in Q2 (ZsGreen+, G6-id+) [4] [%] | % of cells in Q3 (ZsGreen-, G6-id+) [4] [%] | % of cells in Q2 (ZsGreen+, G6-id+) [5] [%] | % of cells in Q3 (ZsGreen-, G6-id+) [5] [%] | % of cells in Q2 (ZsGreen+, G6-id+) [6] [%] | % of cells in Q3 (ZsGreen-, G6-id+) [6] [%] | % of cells in Q3 (ZsGreen-, G6-id+) [7] [%] | fold increase in binding affinity compared to D80 scFv-Fc [8] [fold] | fold slower Koff compared to D80 scFv-Fc [8] [fold] | fold slower Kon compared to D80 scFv-Fc [8] [fold] |
| --- | --- | --- | --- | --- | --- | --- | --- | --- | --- | --- | --- | --- | --- |
| MuG6 antibody (format in the CDC and ADCC assays not stated) (antibody, V domains shown, APC-conjugated in the flow cytometry of FIG.11C) VH: QVQLQQSGTVLARPGASVKMSCKASGYTFTSYWMHWVKQRPGQGLEWIGAVSPGNSDTSYNQKFKGKATLTAVTSTSTAYMEFSSLTNEDSAVYYCTRSRYGNNALDYWGQGTTVTVSS VL: DIELTQSPSSMSVSLGDTVNITCRASQGISSNIVWLQQKPGKSFKGLIYHGTNLEDGVPSRFSGSGSGADYSLTISSLESEDFADYYCVQYSQFPPTFGSGTKLELK | 20 | 20 | 20 | 44 | 6.15 | 43.3 | 5.28 | 41.3 | 9.11 | 0.097 |  |  |  |
| HuG6.3 (format not stated, Octet-Red assay) (antibody, V domains shown) VH: QVQLVQSGAEVVKPGASVKVSCKASGYTFTSYWMHWVKQAPGQGLEWIGAVSPGNSDTSYNEKFKGKATLTVDKSASTAYMELSSLRSEDTAVYYCTRSRYGNNALDYWGQGTLVTVS VL: DIQLTQSPSSLSASVGDRVTITCRASQGISSNIVWLQQKPGKAPKGLIYHGTNLESGVPSRFSGSGSGTDYTLTISSLEPEDFATYYCVQYSQFPPTFGQGTKLEIK |  |  |  |  |  |  |  |  |  |  | 50 | 600 | 3.5 |
